Test [1] concerns the target canine NPR1 (Canis lupus familiaris, UniProt A0A8I3MHU3). Kind of test: cell-based or functional assay.
The target of test [2] is T1, human NPR1 on HEK293 cells (Homo sapiens, UniProt P16066). The test is described as follows: flow cytometry on cells.
The target of test [3] is T2, cynomolgus monkey NPR1 on HEK293 cells (Macaca fascicularis).
T2 chain: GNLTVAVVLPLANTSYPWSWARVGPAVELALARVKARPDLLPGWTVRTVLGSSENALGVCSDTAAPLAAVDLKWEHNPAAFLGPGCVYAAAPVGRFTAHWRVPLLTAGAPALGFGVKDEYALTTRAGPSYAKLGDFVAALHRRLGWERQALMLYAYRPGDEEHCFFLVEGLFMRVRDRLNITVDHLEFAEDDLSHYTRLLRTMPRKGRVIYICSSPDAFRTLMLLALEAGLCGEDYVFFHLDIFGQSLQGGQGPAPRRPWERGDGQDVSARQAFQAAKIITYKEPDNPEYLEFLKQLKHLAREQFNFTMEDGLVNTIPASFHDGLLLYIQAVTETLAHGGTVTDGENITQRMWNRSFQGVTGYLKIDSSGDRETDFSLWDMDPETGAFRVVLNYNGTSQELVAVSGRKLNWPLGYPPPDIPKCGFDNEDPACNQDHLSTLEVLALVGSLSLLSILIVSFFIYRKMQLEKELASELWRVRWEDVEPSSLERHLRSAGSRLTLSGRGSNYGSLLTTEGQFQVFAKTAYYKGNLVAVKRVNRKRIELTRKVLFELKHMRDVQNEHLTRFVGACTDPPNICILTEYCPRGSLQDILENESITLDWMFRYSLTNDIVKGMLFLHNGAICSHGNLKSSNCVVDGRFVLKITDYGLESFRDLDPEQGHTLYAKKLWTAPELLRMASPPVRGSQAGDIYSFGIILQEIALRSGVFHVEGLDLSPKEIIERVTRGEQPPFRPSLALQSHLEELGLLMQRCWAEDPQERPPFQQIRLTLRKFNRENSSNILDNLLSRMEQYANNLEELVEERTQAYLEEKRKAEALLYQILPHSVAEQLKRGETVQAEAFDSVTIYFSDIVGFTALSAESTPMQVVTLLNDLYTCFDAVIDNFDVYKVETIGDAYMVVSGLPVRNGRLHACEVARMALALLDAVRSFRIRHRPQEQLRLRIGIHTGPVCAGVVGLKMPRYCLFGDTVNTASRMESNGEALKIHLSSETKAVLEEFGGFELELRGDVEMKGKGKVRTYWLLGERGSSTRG
The test is described as follows: flow cytometry on cells.

Test [4] concerns the target T1, human NPR1 on HEK293 cells. Kind of test: flow cytometry on cells. The source holds these as a separate data set.
Test [5] addresses T2, cynomolgus monkey NPR1 on HEK293 cells. Kind of test: flow cytometry on cells.
The target of test [6] is T1, human NPR1 on HEK293 cells. The test is described as follows: flow cytometry on cells. This is another data set of the same source.
In test [7] the target is T2, cynomolgus monkey NPR1 on HEK293 cells. The test is described as follows: flow cytometry on cells.
The target in test [8] is T3, monkey NPR1 extracellular domain with C-terminal MycMycHis (Macaca fascicularis).
T3 chain: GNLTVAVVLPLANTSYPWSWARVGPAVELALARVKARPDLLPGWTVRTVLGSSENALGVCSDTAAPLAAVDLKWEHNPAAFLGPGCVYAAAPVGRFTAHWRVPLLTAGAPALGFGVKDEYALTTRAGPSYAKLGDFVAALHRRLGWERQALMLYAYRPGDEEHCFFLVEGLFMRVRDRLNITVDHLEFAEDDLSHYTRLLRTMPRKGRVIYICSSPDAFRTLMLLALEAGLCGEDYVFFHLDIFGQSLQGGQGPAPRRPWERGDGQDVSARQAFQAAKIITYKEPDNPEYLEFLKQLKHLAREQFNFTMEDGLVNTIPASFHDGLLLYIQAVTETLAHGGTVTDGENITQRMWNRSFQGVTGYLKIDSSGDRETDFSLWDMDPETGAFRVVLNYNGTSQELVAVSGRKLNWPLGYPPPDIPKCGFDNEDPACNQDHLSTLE
The test is described as follows: SPR.

Test [9] deals with mouse NPR1 protein (mouse, UniProt P18293). The test is described as follows: SPR.
Sequence of mouse NPR1 protein (P18293 29-469): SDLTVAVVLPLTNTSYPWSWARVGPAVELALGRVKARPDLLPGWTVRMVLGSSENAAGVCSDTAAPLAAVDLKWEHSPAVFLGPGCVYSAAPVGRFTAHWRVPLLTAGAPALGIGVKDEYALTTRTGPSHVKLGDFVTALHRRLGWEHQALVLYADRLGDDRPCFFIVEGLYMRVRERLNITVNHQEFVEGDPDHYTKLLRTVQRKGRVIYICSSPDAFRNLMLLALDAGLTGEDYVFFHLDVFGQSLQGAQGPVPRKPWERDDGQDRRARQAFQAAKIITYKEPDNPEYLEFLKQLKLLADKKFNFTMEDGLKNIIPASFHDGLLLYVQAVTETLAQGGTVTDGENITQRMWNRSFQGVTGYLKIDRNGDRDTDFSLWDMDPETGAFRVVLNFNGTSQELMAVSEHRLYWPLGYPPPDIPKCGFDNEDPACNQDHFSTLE
Test [10] concerns the target NPR2 extracellular domain with C-terminal MycMycHis (Homo sapiens, UniProt P20594). Kind of test: SPR.
Test [11] addresses NPR3 extracellular domain with C-terminal MycMycHis (Homo sapiens, UniProt P17342). The test is described as follows: SPR.
In test [12] the target is T4, atrial natriuretic peptide (human, UniProt P01160).
T4 chain: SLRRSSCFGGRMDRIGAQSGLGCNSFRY
The test is described as follows: SPR.

Where two headings read alike, the source gives them in different places.

Sequence of NPR3 extracellular domain with C-terminal MycMycHis (P17342 27-481): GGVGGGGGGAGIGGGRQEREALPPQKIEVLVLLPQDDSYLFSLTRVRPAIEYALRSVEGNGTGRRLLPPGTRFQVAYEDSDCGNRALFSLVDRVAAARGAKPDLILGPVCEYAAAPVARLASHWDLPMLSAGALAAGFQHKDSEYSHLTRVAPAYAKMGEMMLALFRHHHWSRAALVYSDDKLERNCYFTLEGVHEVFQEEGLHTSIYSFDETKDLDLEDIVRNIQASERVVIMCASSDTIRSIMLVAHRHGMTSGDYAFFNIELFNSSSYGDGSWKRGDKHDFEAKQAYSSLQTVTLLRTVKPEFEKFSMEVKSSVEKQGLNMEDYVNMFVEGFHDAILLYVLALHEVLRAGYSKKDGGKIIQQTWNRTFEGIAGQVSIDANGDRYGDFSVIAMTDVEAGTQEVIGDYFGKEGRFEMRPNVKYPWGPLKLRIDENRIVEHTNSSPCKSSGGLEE
Sequence of NPR2 extracellular domain with C-terminal MycMycHis (P20594 23-458): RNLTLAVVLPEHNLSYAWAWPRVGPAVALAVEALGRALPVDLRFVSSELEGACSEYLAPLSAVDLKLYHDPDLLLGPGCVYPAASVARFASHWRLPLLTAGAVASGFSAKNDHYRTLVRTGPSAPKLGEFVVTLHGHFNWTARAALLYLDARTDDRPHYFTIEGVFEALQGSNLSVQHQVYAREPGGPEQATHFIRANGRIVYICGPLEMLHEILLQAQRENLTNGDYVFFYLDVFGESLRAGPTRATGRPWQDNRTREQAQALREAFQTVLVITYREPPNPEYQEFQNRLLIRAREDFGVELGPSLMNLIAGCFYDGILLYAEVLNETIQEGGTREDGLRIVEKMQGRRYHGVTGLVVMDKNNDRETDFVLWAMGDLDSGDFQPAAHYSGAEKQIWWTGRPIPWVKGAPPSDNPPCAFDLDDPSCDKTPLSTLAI

B1: REGN5381 (antibody, V domains shown)
VH: QVQLVQSGAEVKKPGASVTVSCKASGYTFTDYYMHWVRQAPGQGLEWMGWIKPNSGGTNSAQRFQGRITMTWDTSISTAYMELSRLRSDDTAVYYCSRGGPVMNYYYYYGMDVWGQGTTVTVSS
VL: NIQMTQSPSSLSASVGDRVTITCRASQSIDSYLNWYQQKPGKAPKLLIYVASSLQSGVPSRFSGSGSGKDFTLTISSLQPEDFATYYCQQSYSIPTFGQGTRLEIK
As for B1, the “activation of canine NPR1 (Supplementary Fig. 1); EC50” value in test [1] is more than 100 nM. Further, the 50% effective concentration (EC50) in [2] was 4.58 nM; in [3] it was 2.27 nM; in [4], 4.56 nM; in test [5] it was 2.42 nM; in [6], 5.69 nM; in test [7] it was 3.01 nM. The binding result in [8] was “binds”; in test [9] it was “no binding”; in test [10], “no binding”; in test [11], “no binding”; in test [12], “no binding”.

Values taken from paper PMC11410649 (Nature, 2024).
